Assay results taken from patent US20190248900A1 (Y BIOLOGICS, published 2019).

T1: ITGA6-Fc
T1 construct: Fc fusion
T1 sequence (P23229 whole entry, species assumed, looked up): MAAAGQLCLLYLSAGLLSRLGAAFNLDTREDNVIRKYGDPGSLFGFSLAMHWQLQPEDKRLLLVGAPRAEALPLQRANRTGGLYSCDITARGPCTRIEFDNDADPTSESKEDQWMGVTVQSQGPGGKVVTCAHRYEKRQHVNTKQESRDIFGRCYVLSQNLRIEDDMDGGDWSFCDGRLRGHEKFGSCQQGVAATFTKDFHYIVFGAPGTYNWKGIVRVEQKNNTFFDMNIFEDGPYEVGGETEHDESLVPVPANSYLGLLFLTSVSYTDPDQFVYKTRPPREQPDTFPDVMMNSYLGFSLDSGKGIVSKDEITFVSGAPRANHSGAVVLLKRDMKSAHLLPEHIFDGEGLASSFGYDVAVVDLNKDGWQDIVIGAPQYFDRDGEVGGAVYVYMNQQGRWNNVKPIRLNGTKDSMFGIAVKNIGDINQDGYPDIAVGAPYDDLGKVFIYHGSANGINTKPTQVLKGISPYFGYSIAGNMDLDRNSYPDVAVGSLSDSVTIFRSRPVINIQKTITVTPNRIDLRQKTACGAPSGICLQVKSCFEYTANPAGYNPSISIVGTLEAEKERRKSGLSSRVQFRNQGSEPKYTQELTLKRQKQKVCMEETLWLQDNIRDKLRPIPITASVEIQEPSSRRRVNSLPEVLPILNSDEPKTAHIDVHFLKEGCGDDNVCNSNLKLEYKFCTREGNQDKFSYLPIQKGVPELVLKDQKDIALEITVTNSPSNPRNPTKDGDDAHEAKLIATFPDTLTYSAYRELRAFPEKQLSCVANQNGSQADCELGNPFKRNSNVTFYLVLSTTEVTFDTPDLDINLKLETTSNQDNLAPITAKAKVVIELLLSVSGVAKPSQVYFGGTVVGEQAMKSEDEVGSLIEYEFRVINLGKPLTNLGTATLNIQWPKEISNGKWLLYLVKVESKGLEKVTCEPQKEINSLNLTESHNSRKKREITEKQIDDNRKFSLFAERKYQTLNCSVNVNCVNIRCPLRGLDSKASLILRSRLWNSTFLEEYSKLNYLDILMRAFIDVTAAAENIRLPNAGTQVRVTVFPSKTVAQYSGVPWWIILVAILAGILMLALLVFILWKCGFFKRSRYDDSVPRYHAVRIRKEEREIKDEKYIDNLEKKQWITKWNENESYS

B1: PD1-45F4 (antibody, V domains shown)
VH: QMQLVESGGGLVQPGRSLRLSCAASGFTFDDYAMHWVRQAPGQGLEWVSGISWNSNNIKYADSVKGRFTISRDNSKNSLYLQMNSLRAEDTAVYYCARGALTPLDVWGQGTPVTVSS
VL: SYELTQAPSLSVSPGQTANIICSGDNLRTKYVSWYQQKPGQSPLLVIYQDTRRPSGIPARFSGSNSGNTATLTISGTQTRDESTYYCMTWDVDTTSMIFGGGTKLTVL
notes: scFv-phage in the screening ELISA; later whole IgG
B2: PD1-48A9 (antibody, V domains shown)
VH: QMQLVQSGAEVKKPGSSVKVSCKASGDTFTRYIINWVRQAPGQGLEWMGRVIPTLGLTTYAQNFQDTVTIIADKSTNTAYMELKNLRSEDTAVYYCARGYGSGAFDIWGQGTMITVSS
VL: DIVMTQTPLSLPVTPGEPASISCRSSQSLLDSHDGNTYLDWYLQKPGQSPQLLIYTLSHRASGVPDRFSGSGSGTDFTLKISRVEAEDVGLYYCMQRIDFPYTFGQGTKVEIK
notes: scFv-phage in the screening ELISA; whole IgG in the other assays
B3: PD1-49B9 (antibody, V domains shown)
VH: QMQLVESGGGLVQPGRSLRLSCAASGFTFEDYAMHWVRQPPGKGLEWVSSISWNSHNIAYADSVKGRFTISRDNSKNSLYLQMNSLRAEDTAVYYCSTSGLGVHAWGQGTMVTVSS
VL: QSALTQPPSASGSPGQSVTISCTGTSSDVGGYNYVSWYQQHPGKAPKLMIYEVSKRPSGVPDRFSGSKSGNTASLTVSGLQPEDEADYYCSSFARNSNYVFGTGTKVTVL
notes: as for B1

What was measured:
M5 = target: T2, M5; test: scFv-phage ELISA
T2 construct: also called PD1 mutant M5

M14 = target: T3, M14; test: scFv-phage ELISA
T3 construct: also called PD1 mutant M14

M1-1 = target: T4, M1-1; test: scFv-phage ELISA
T4 construct: also called PD1 mutant M1-1

M2-1 = target: T5, M2-1; test: scFv-phage ELISA
T5 construct: also called PD1 mutant M2-1

M4 = target: T6, M4; test: scFv-phage ELISA
T6 construct: also called PD1 mutant M4

M7-1 = target: T7, M7-1; test: scFv-phage ELISA
T7 construct: also called PD1 mutant M7-1

ITGA6-Fc = target: T1, ITGA6-Fc; test: scFv-phage ELISA
M9 = target: T8, M9; test: scFv-phage ELISA
T8 construct: also called PD1 mutant M9

M7 = target: T9, M7; test: scFv-phage ELISA
T9 construct: also called PD1 mutant M7

M3 = target: T10, M3; test: scFv-phage ELISA
T10 construct: also called PD1 mutant M3

M11 = target: T11, M11; test: scFv-phage ELISA
T11 construct: also called PD1 mutant M11

M7-2 = target: T12, M7-2; test: scFv-phage ELISA
T12 construct: also called PD1 mutant M7-2

M2-2 = target: T13, M2-2; test: scFv-phage ELISA
T13 construct: also called PD1 mutant M2-2

M8 = target: T14, M8; test: scFv-phage ELISA
T14 construct: also called PD1 mutant M8

[1] = target: T15, antigen PD1 (coated, construct not stated) (UniProt Q15116 25-170, limits assumed); test: scFv-phage ELISA
T15 construct: also called PD1 antigen; PDCD1

M12 = target: T16, M12; test: scFv-phage ELISA
T16 construct: also called PD1 mutant M12

M13 = target: T17, M13; test: scFv-phage ELISA
T17 construct: also called PD1 mutant M13

M2 = target: T18, M2; test: scFv-phage ELISA
T18 construct: also called PD1 mutant M2

M10 = target: T19, M10; test: scFv-phage ELISA
T19 construct: also called PD1 mutant M10

M1-2 = target: T20, M1-2; test: scFv-phage ELISA
T20 construct: also called PD1 mutant M1-2

M5-2 = target: T21, M5-2; test: scFv-phage ELISA
T21 construct: also called PD1 mutant M5-2

M1 = target: T22, M1; test: scFv-phage ELISA
T22 construct: also called PD1 mutant M1

M6 = target: T23, M6; test: scFv-phage ELISA
T23 construct: also called PD1 mutant M6

M5-1 = target: T24, M5-1; test: scFv-phage ELISA
T24 construct: also called PD1 mutant M5-1

[2] = target: human PD-1 (NM_005018.2) over-expressed on cells (human, UniProt Q15116 25-288); test: cell-based or functional assay
Sequence of human PD-1 (NM_005018.2) over-expressed on cells (Q15116 25-288): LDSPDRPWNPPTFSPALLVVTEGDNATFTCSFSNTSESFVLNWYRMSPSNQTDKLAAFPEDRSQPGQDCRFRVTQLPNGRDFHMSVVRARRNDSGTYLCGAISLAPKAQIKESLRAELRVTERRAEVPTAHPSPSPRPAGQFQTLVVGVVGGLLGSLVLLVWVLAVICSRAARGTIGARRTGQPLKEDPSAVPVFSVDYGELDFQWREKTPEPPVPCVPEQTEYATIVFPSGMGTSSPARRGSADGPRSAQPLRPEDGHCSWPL

T15 sequence (Q15116 25-170 limits assumed): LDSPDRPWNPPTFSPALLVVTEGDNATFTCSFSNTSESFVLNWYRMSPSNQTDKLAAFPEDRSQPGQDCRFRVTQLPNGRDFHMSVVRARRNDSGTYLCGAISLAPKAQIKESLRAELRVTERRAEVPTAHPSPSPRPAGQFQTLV

| Binder | OD490 (M5) | OD490 (M14) | OD490 (M1-1) | OD490 (M2-1) | OD490 (M4) | OD490 (M7-1) | OD490 (ITGA6-Fc) | OD490 (M9) | OD490 (M7) | OD490 (M3) | OD490 (M11) | OD490 (M7-2) | OD490 (M2-2) | OD490 (M8) | OD490 [1] | OD490 (M12) | OD490 (M13) | OD490 (M2) | OD490 (M10) | OD490 (M1-2) | also measured |
| --- | --- | --- | --- | --- | --- | --- | --- | --- | --- | --- | --- | --- | --- | --- | --- | --- | --- | --- | --- | --- | --- |
| B1 | 0.1 | 1.8 | 2.5 | 3 | 2.7 | 3.5 | 0.1 | 3.3 | 3.5 | 3.7 | 0.3 | 3.4 | 2.5 | 3.6 | 3.8 | 3.7 | 3.5 | 2.9 | 3.3 | 3.6 | OD490 (M5-2): 3.1; OD490 (M1): 2.6; OD490 (M6): 3.7; OD490 (M5-1): 0.1 |
| B2 | 1.3 | 4 | 3.8 | 3.8 | 3.9 | 0.4 | 0.3 | 3.9 | 0.3 | 2 | 0.3 | 0.4 | 3.9 | 1.7 | 2.1 | 3.9 | 4 | 0.3 | 3.8 | 3.9 | EC50 [nM], PD1/PD-L1 blockade bioassay [2]: 8.64 nM; OD490 (M5-2): 3.9; OD490 (M1): 3.7; OD490 (M6): 3.9; OD490 (M5-1): 0.6 |
| B3 | 3.9 | 3.9 | 3.8 | 3.8 | 3.8 | 3.9 | 0.3 | 3.9 | 3.9 | 3.9 | 1.4 | 3.9 | 3.9 | 4 | 3.9 | 3.9 | 3.9 | 3.9 | 3.9 | 3.9 | OD490 (M5-2): 4; OD490 (M1): 3.9; OD490 (M6): 3.9; OD490 (M5-1): 3.9 |
